Measured values as given in patent US20110262446A1 (published 2011).
Each block holds one binder with its values, some of them ahead of it.

Columns and labels:
[1] = molecular target: T1, IGF-II (amino acids 1-67) (human, UniProt P01344 25-91); experiment: SPR (Biacore T100): IgG captured on Protein G', IGF-II injected
T1 construct: mature; also called IGF-II (67aa); IGF2
Method: (§1) BIACORE® T100 and a CM5 chip coated with Protein G were utilised to set up following assay. Approximately 1000 RU of Protein G′ was immobilized on a CM5 chip using standard amine chemistry immobilization method. Entire assay consisted of three sequential injection of following four reagents 1) Candidate IgG was injected onto Protein G′ at 10 ug/ml at 5 ul/min for 180 sec.

[2] = molecular target: T1, IGF-II (amino acids 1-67); experiment: SPR (Biacore), germlined IgG
[3] = molecular target: T1, IGF-II (amino acids 1-67); experiment: cell-based or functional assay
[4] = molecular target: T1, IGF-II (amino acids 1-67); experiment: SPR (Biacore), non-germlined IgG
IGF binding protein BP2 = molecular target: T2, IGF binding protein BP2 (UniProt P18065 36-325); experiment: SPR (Biacore T100): control with no IGF-II injected before the BP
T2 construct: also called IGF BP2
T2 sequence (looked up): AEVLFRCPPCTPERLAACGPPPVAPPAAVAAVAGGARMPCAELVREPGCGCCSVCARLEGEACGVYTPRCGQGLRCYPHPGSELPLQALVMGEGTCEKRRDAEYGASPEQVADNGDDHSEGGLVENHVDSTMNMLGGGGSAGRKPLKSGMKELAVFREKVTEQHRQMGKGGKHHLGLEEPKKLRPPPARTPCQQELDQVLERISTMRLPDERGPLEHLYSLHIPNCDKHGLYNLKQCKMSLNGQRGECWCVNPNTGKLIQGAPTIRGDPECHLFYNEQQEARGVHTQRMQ
Method: as §1

IGF binding protein BP4 = molecular target: T3, IGF binding protein BP4 (UniProt P22692 22-258); experiment: as above
T3 construct: also called IGF BP4
T3 sequence (looked up): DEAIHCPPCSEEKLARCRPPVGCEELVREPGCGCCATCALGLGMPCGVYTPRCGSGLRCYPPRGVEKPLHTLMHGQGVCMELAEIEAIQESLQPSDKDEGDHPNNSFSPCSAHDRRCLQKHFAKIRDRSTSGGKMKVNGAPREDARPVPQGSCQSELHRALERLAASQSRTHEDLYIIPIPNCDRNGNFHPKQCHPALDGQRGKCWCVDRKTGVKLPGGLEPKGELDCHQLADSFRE
Method: as §1

[5] = molecular target: T1, IGF-II (amino acids 1-67); experiment: SPR (Biacore T100): IgG captured on Protein G', ligand bound, then BP injected; competitor BP2
Method: as §1

[6] = molecular target: T1, IGF-II (amino acids 1-67); experiment: SPR (Biacore T100): IgG captured on Protein G', ligand bound, then BP injected; competitor BP4
Method: as §1

T1 sequence (P01344 25-91): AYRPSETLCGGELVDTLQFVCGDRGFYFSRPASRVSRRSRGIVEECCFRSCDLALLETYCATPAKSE

binding result [1]: no binding (tested: 50 nM)
B1: M0080-G03 IgG (antibody, V domains shown)
VH: EVQLLESGGGLVQPGGSLRLSCAASGFTFSFYQMMWVRQAPGKGLEWVSSISPSGGRTYYADSVKGRFTISRDNSKNTLYLQMNSLRAEDTAVYYCAKDIGLGYCSSTSCYTGTPLDYWGQGTLVTVSS
VL: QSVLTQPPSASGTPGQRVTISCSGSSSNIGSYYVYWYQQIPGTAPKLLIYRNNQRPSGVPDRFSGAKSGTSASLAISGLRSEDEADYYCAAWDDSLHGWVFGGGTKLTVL
notes: also called 566A-M0080-G03; 566A-X0004-A02

Kd [2]: 0.023 nM
B2: X0008-A01 (germlined M0064-F02 IgG) (antibody, V domains shown)
VH: EVQLLESGGGLVQPGGSLRLSCAASGFTFSNYIMWWVRQAPGKGLEWVSVISSSGGMTRYADSVKGRFTISRDNSKNTLYLQMNSLRAEDTAVYYCARDNGDYVGEKGFDIWGQGTMVTVSS
VL: DIQMTQSPSSLSASVGDRVTITCRASQSISNYLNWYQQKPGKAPKLLIYTASTLQSGVPSRFSGSGSGTDFTLTISSLQPEDFATYYCQQSYNSPWTFGQGTKVEIK

IC50, IGF-II stimulated BaF3 cell proliferation (Guava ViaCount) [3]: ~19 nM
Kd [4]: 0.52 nM
binding result (IGF binding protein BP2): no binding (tested: 50 nM)
binding result (IGF binding protein BP4): no binding (tested: 50 nM)
competition score (0 = does not compete significantly, 5 = competes strongly) [5]: 5 score 0-5
competition score (0 = does not compete significantly, 5 = competes strongly) [6]: 5 score 0-5
B3: M0064-E04 IgG (antibody, V domains shown)
VH: EVQLLESGGGLVQPGGSLRLSCAASGFTFSVYDMNWVRQAPGKGLEWVSSISSSGGGTLYADSVKGRFTISRDNSKNTLYLQMNSLRAEDTAVYYCARDSDTSSYYWYYDLWGRGTLVTVSS
VL: DIQMTQSPSSLSASVGDRVTITCQASHDISNYLNWYQQKPGKAPKLLIYAASRLQSGVPSRFSGGGSGTDFSLTISSLQAEDFATYYCQQSYSFPRTFGQGTNLEIK
notes: IgG form of the Fab; also called non-germlined M0064-E04

binding result [1]: no binding (tested: 50 nM)
B4: 566A-M0073-C11 IgG (antibody, V domains shown)
VH: EVQLLESGGGLVQPGGSLRLSCAASGFTFSPYDMWWVRQAPGKGLEWVSSISSSGGITAYADSVKGRFTISRDNSKNTLYLQMNSLRAEDTAVYYCARAGYSSSWGYYYYGMDVWGQGTTVTVSS
VL: QSALTQPPSVSVSPGQTASITCSGDRLGDKYASWYQQKPGQSPVLVIYQDTKRPSGIPERFSGSNSGSTATLTISGTQAMDEADYYCQAWDSSTVVFGGGTKLTVL
notes: also called 566A-X0003-B02
